Data taken from US20160002337A1 (ALBERT EINSTEIN COLLEGE OF MEDICINE, published 2016).

How the values were obtained:
[1] = molecular target: T1, Fc portion of human IgG1 (Ig control) (human, UniProt P01857-1 99-330 = IgG part, limits assumed); test: FACS on 3T3 transfectants, PE anti-human IgG Fc
T1 construct: domain: Fc; Control protein made in Drosophila S2 cells; also called control Ig; human IgG1 Fc tag
Protocol: (§1) Antibodies and flow cytometry. Cells were incubated with Fc blocking reagents and then stained with combinations of the following anti-human antibodies: CD152-PE, CD28-PE, B7-1-PE, B7-2-PE, PD-1-PE, PD-L1-PE, PD-L2-PE, ICOS-PE, ICOSL-PE, B7H4-PE, CD14-FITC, CD19-FITC, CD8a-Percp-Cy5.5, CD4-APC, CD83-APC, streptavidin and isotype controls (eBioscience). Biotinylated anti-hB7-H3 was purchased from R&D. For receptor binding, cells were incubated with HHLA2-Ig, B7x-Ig, or control Ig for 45 min on ice and then stained with PE-anti-human IgG Fc (Jackson Immunoresearch). Samples were acquired on a FACSCalibur, LSRII or LSRII yellow (BD Biosciences), and analyzed with FlowJo (Treestar).

B7x-Ig [2] = molecular target: T2, B7x-Ig (human, UniProt Q7Z7D3 25-259; P01857 99-330 = IgG part, limits assumed); test: FACS on 3T3 transfectants, PE anti-human IgG Fc
T2 construct: extracellular domain;domain: Fc; Made in Drosophila S2 cells; Used as a control fusion protein; also called B7x-Ig fusion protein
T2 sequence (Q7Z7D3 other isoform, or with tags, fused parts or gaps limits assumed): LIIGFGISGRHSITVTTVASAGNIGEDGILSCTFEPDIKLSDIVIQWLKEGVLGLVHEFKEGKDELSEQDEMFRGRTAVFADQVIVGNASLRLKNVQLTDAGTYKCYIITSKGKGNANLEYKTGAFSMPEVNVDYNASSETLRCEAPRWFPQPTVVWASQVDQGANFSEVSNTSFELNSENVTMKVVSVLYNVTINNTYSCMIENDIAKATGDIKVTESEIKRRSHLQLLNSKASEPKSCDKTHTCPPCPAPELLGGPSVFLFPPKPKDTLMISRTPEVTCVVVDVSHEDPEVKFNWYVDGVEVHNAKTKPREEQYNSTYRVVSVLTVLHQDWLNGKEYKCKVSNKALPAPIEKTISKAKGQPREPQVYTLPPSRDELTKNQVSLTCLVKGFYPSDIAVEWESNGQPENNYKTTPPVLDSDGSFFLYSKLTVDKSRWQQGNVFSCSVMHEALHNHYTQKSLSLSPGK
Protocol: as §1

B7x-Ig [3] = molecular target: T2, B7x-Ig; test: FACS on 3T3 or CT26 transfectants, PE anti-human IgG Fc
Protocol: as §1

B1: human ICOS on transfected cells (receptor, UniProt Q9Y6W8 21-199, looked up)
chain: EINGSANYEMFIFHNGGVQILCKYPDIVQQFKMQLLKGGQILCDLTKTKGSGNTVSIKSLKFCHSQLSNNSVSFFLYNLDHSHANYYFCNLSIFDPPPFKVTLTGGYLHIYESQLCCQLKFWLPIGCAAFVVVCILGCILICWLTKKKYSSSVHDPNGEYMFMRAVNTAKKSRLTDVTL
notes: whole, on cells
[1]
  binding result: no binding
B7x-Ig [2]
  binding result: no binding

B2: human B7-1 on transfected cells (ligand, UniProt P33681 35-288, looked up)
chain: VIHVTKEVKEVATLSCGHNVSVEELAQTRIYWQKEKKMVLTMMSGDMNIWPEYKNRTIFDITNNLSIVILALRPSDEGTYECVVLKYEKDAFKREHLAEVTLSVKADFPTPSISDFEIPTSNIRRIICSTSGGFPEPHLSWLENGEELNAINTTVSQDPETELYAVSSKLDFNMTTNHSFMCLIKYGHLRVNQTFNWNTTKQEHFPDNLLPSWAITLISVNGIFVICCLTYCFAPRCRERRRNERLRRESVRPV
notes: whole, on cells; also called CD80
B7x-Ig [3]
  binding result: no binding

B3: human B7-2 on transfected cells (ligand, UniProt P42081 24-329, looked up)
chain: APLKIQAYFNETADLPCQFANSQNQSLSELVVFWQDQENLVLNEVYLGKEKFDSVHSKYMGRTSFDSDSWTLRLHNLQIKDKGLYQCIIHHKKPTGMIRIHQMNSELSVLANFSQPEIVPISNITENVYINLTCSSIHGYPEPKKMSVLLRTKNSTIEYDGVMQKSQDNVTELYDVSISLSVSFPDVTSNMTIFCILETDKTRLLSSPFSIELEDPQPPPDHIPWITAVLPTVIICVMVFCLILWKWKKKKRPRNSYKCGTNTMEREESEQTKKREKIHIPERSDEAQRVFKSSKTSSCDKSDTCF
notes: whole, on cells; also called CD86
B7x-Ig [3]
  binding result: no binding

B4: human B7h on transfected cells (ligand, UniProt O75144 19-302, looked up)
chain: DTQEKEVRAMVGSDVELSCACPEGSRFDLNDVYVYWQTSESKTVVTYHIPQNSSLENVDSRYRNRALMSPAGMLRGDFSLRLFNVTPQDEQKFHCLVLSQSLGFQEVLSVEVTLHVAANFSVPVVSAPHSPSQDELTFTCTSINGYPRPNVYWINKTDNSLLDQALQNDTVFLNMRGLYDVVSVLRIARTPSVNIGCCIENVLLQQNLTVGSQTGNDIGERDKITENPVSTGEKNAATWSILAVLCLLVVVAVAIGWVCRDRCLQHSYAGAWAVSPETELTGHV
notes: whole, on cells; also called ICOS-L
B7x-Ig [3]
  binding result: no binding

B5: human PD-L2 on transfected cells (ligand, UniProt Q9BQ51 20-273, looked up)
chain: LFTVTVPKELYIIEHGSNVTLECNFDTGSHVNLGAITASLQKVENDTSPHRERATLLEEQLPLGKASFHIPQVQVRDEGQYQCIIIYGVAWDYKYLTLKVKASYRKINTHILKVPETDEVELTCQATGYPLAEVSWPNVSVPANTSHSRTPEGLYQVTSVLRLKPPPGRNFSCVFWNTHVRELTLASIDLQSQMEPRTHPTWLLHIFIPFCIIAFIFIATVIALRKQLCQKLYSSKDTTKRPVTTTKREVNSAI
notes: whole, on cells; also called B7-DC
B7x-Ig [3]
  binding result: no binding
